Assays:
[1] = target: T1, biotinylated wild type soluble Fas ligand (biotinylated WT-sFasL) (human, UniProt P48023 103-281, biotin (EZ-Link Sulfo-NHS-LC-Biotin), sites not stated); experiment: ELISA; competition: wells coated with recombinant human soluble Fas (250 ng/ml); biotinylated WT sFasL (70 ng/ml) mixed with serial 3-fold dilutions of WT or 8-site mutated sFasL, 2 hours; biotin detected with HRP-streptavidin; settings: both partners purified
T1 construct: human Fas ligand (FasL, CD178), soluble long form, amino acids 103 to 281; the same protein as m1, biotinylated after purification; Same construct as m1, chemically biotinylated
T1 sequence (looked up): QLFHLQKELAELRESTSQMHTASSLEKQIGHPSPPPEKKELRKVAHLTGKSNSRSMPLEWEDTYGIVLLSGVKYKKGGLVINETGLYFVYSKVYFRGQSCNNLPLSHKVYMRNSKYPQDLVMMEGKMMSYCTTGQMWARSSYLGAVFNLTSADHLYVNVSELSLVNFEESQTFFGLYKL

[2] = target: T2, wild type soluble Fas ligand (WT-sFasL), long form, amino acids 103 to 281 (human, UniProt P48023 103-281); experiment: ELISA; direct binding: wells coated with recombinant human soluble Fas, 5 ug/ml; serial 3-fold dilutions of WT or mut-sFasL, 2 hours; bound sFasL detected with a polyclonal anti-human FasL antibody; settings: both partners purified
T2 construct: human Fas ligand (FasL, CD178), soluble long form, amino acids 103 to 281 of the 281 amino acid protein; cloned in pSecTag/FRT/V5-His-TOPO with stop codons, so the V5-His tag is not expressed ('native form'); Secreted from the pSecTag vector; the oligomeric state was not measured here; also called wild type sFasL; long form of sFasL
T2 sequence (looked up): T1 sequence (looked up)

binding result [1]: binds
binding result [2]: binds
B1: recombinant human soluble Fas receptor (receptor, UniProt P25445 26-173, looked up)
chain: QVTDINSKGLELRKTVTTVETQNLEGLHHDGQFCHKPCPPGERKARDCTVNGDEPDCVPCQEGKEYTDKAHFSSKCRRCRLCDEGHGLEVEINCTRTQNTKCRCKPNFFCNSTVCEHCDPCTKCEHGIIKECTLTSNTKCKEEGSRSN
notes: human Fas (CD95), recombinant soluble receptor from PeproTech; No catalogue number is printed; also called recombinant human Fas; CD95; source: bought: PeproTech
